# Data published in the RNAGym collection of RNA variant scans (doi:10.7554/elife.90254).
# B1: OR4K15 (parent)
# chain: GUUAACGGUCAUAGGCCAUGGAAACUAGGAGCACCAUUUCGCUGCCAGUGAAGAAAUGAACAAAGAAAAUCUGGGCCAGGCAGGCAUCAAAAGAAAUAGUCUUGCGCUCAACCAGAAAGUCUGUAAUCAUUUUAAGGGUA
# Variants of: B1
# Experiment: self-cleavage, relative activity (ratio to wild type); higher = more cleavage; in vitro, sequencing; the parent is a self-cleaving ribozyme
row,Variant,self-cleavage
1,GUUAACGGUCAUAGGCCAUGGAAACUAGGAGCACCAUUUCGCUGCCAGUGAAGACAUGAACAAAGAAAAUCUGGGCCAGGCAGGCAUCAAAAGAAAUAGUCUUGCGCUCAACCAGAAAGUCUGUAAUCGUUUUAAGGGUA [A55C A129G],1.2
2,GUUAACGGUCAUAGGCCAUGGAAACUAGGAGCACCAUUUCGCUGCCAGUGAAGACAUGAACAAAGAAAAUCUGGGCCAGGCAGGCAUCAAAAGAAAUAGUCUUGCGCUCAACCAGAAAGUCUGUAAUCAUUUUAAGGGUA [A55C],0.94
3,GUUAACGGUCAUAGGCCAUGGAAACUAGGAGCACCAUUUCGCUGCCAGUGAAGUAAUGAACAAAGAAAAUCUGGGCCAGGCAGGCAUCAAAAGAAAUAGUCUUGCACUCAACCAGAAAGUCUGUAAUCAUUUUAAGGGUA [A54U G106A],0.02
4,GUUAACGGUCAUAGGCCAUGGAAACUAGGAGCACCAUUUCGCUGCCAGUGAAGUAAUGAACAAAGAAAAUCUGGGCCAGGCAGGCAUCAAAAGAAAUAGUCUCGCGCUCAACCAGAAAGUCUGUAAUCAUUUUAAGGGUA [A54U U103C],1.26
5,GUUAACGGUCAUAGGCCAUGGAAACUAGGAGCACCAUUUCGCUGCCAGUGAAGUAAUGAACAAAGAAAAUCUGGGCCAGGCAGGCAUCAAAAGAAAUAGUCUGGCGCUCAACCAGAAAGUCUGUAAUCAUUUUAAGGGUA [A54U U103G],0.04
6,GUUAACGGUCAUAGGCCAUGGAAACUAGGAGCACCAUUUCGCUGCCAGUGAAGUAAUGAACAAAGAAAAUCUGGGCCAGGCAGGCAUCAAAAGAAAUAGUCUUGCGCUCAACCAUAAAGUCUGUAAUCAUUUUAAGGGUA [A54U G115U],0.03
7,GUUAACGGUCAUAGGCCAUGGAAACUAGGAGCACCAUUUCGCUGCCAGUGAAGUAAUGAACAAAGAAAAUCUGGGCCAGGCAGGCAUCAAAAGAAAUAGUCUUGCGCCCAACCAGAAAGUCUGUAAUCAUUUUAAGGGUA [A54U U108C],0.01
8,GUUAACGGUCAUAGGCCAUGGAAACUAGGAGCACCAUUUCGCUGCCAGUGAAGACAUGAACAAAGAAAAUCUGGGCCCGGCAGGCAUCAAAAGAAAUAGUCUUGCGCUCAACCAGAAAGUCUGUAAUCAUUUUAAGGGUA [A55C A78C],0.25
9,GUUAACGGUCAUAGGCCAUGGAAACUAGGAGCACCAUUUCGCUGCCAGUGAAGUAAUGAACAAAGAAAAUCUGGGCCAGGCAGGCAUCAAAAGAAAUAGUCUUGCGCUCAACCAGAAAGUCUGUAAUCAUCUUAAGGGUA [A54U U131C],1.11
10,GUUAACGGUCAUAGGCCAUGGAAACUAGGAGCACCAUUUCGCUGCCAGUGAAGUAAUGAACAAAGAAAAUCUGUGCCAGGCAGGCAUCAAAAGAAAUAGUCUUGCGCUCAACCAGAAAGUCUGUAAUCAUUUUAAGGGUA [A54U G74U],0.02
11,GUUAACGGUCAUAGGCCAUGGAAACUAGGAGCACCAUUUCGCUGCCAGUGAAGUAAUGAACAAAGAAAAUCUGGGCCAGGCAGGCAUCAAAAGAAAUAGUCUUGCGCUCAACCAGAAAGUCUGUAACCAUUUUAAGGGUA [A54U U127C],0.18
12,GUUAACGGUCAUAGGCCAUGGAAACUAGGAGCACCAUUUCGCUGCCAGUGAAGUAAUGAACAAAGAAAAUCUGGGCCAGGCAGGCAUCAAAAGAAAUAGUCCUGCGCUCAACCAGAAAGUCUGUAAUCAUUUUAAGGGUA [A54U U102C],1.59
13,GUUAACGGUCAUAGGCCAUGGAAACUAGGAGCACCAUUUCGCUGCCAGUGAAGUAAUGAACAAAGAAAAUCUGGGCCAGGCAGGCAUCAAAAGAAAUAGUCUUGCGCUCAACCAGAAAGUCUGUAAUCAUUUUAUGGGUA [A54U A135U],2.01
14,GUUAACGGUCAUAGGCCAUGGAAACUAGGAGCACCAUUUCGCUGCCAGUGAAGUAAUGAACAAAGAAAAUCUGGGCCAGGCAGGCAUCAAAAGAAAUAGACUUGCGCUCAACCAGAAAGUCUGUAAUCAUUUUAAGGGUA [A54U U100A],0.59
15,GUUAACGGUCAUAGGCCAUGGAAACUAGGAGCACCAUUUCGCUGCCAGUGAAGUAAUGAACAAAGAAAAUCUGGGCCAGGCAGGCACCAAAAGAAAUAGUCUUGCGCUCAACCAGAAAGUCUGUAAUCAUUUUAAGGGUA [A54U U87C],1.34
16,GUUAACGGUCAUAGGCCAUGGAAACUAGGAGCACCAUUUCGCUGCCAGUGAAGACAUGUACAAAGAAAAUCUGGGCCAGGCAGGCAUCAAAAGAAAUAGUCUUGCGCUCAACCAGAAAGUCUGUAAUCAUUUUAAGGGUA [A55C A59U],1.8
17,GUUAACGGUCAUAGGCCAUGGAAACUAGGAGCACCAUUUCGCUGCCAGUGAAGACAUGAACAAAGAAAAUCUGGGCCAGGCAGGCAUCAAAAGAAAUAGUCUUGCGCUCGACCAGAAAGUCUGUAAUCAUUUUAAGGGUA [A55C A110G],1.02
18,GUUAACGGUCAUAGGCCAUGGAAACUAGGAGCACCAUUUCGCUGCCAGUGAAGACAUGAACAAAGAAAAUCUGGGCCAGGCAGGCAUCAAAAGAAAUAGUCUUGCGCUCAACCAGAAAGUCUGUAGUCAUUUUAAGGGUA [A55C A126G],1.09
19,GUUAACGGUCAUAGGCCAUGGAAACUAGGAGCACCAUUUCGCUGCCAGUGAAGUAAUGAACAAAGAAAACCUGGGCCAGGCAGGCAUCAAAAGAAAUAGUCUUGCGCUCAACCAGAAAGUCUGUAAUCAUUUUAAGGGUA [A54U U70C],0.53
20,GUUAACGGUCAUAGGCCAUGGAAACUAGGAGCACCAUUUCGCUGCCAGUGAAGUAAUGAACAAAGAAAAUCUGGGCCAGGCAGGCAUCAAAAGAAAUAGUCUUGCGCUCAACCAGAAAGUCUGUAAUCAUUUUAAGGGCA [A54U U139C],1.45
21,GUUAACGGUCAUAGGCCAUGGAAACUAGGAGCACCAUUUCGCUGCCAGUGAAGUAAUGAACAAAGAAAAUCUGGGCCAGGCAGGCAUCAAAAGAAAUAGUCUUGCGCUCAACCAGAAAGUCUGUAAUCAUUUUAAGGGAA [A54U U139A],1.63
